Residue numbers refer to the chain shown, from its start. In names and notes the source's numbering stands.

Assay [1] has as its target T1, human CD3, membrane-expressed (CD3/TCR complex on HPB-ALL cells or purified human T cells) (human, UniProt P07766 23-207; P04234 22-171; P09693 23-182).
T1 construct: whole, on cells; On cells CD3 stands in the complex with the TCR and the zeta chain; also called cell surface expressed CD3/TCR complexes
Description: flow cytometry on HPB-ALL cells.

In assay [2] the target is T2, recombinant purified human CLEC12A (Sino Biological Inc, cat. Nr. 11896-H07H) (human, UniProt Q5QGZ9 65-265).
T2 construct: Bought protein; also called CLEC12A protein
T2 sequence (looked up): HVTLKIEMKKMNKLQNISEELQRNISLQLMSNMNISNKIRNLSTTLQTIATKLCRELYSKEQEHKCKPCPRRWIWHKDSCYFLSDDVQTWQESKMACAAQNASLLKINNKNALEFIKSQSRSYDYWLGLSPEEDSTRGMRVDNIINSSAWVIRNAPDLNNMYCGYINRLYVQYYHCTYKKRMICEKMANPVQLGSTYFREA
Description: SPR (BIAcore T100), bsAb captured by anti-human IgG on a CM5 chip, antigen in solution; average of three measurements.

The target of assay [3] is T2, recombinant purified human CLEC12A …. Nature of the assay: SPR (BIAcore T100), ratio of the two KD values.
Assay [4] concerns the target T1, human CD3, membrane-expressed (CD3/TCR …). Description: flow cytometry on CD3+ HPB-ALL cells [panel HPB-ALL].
The target is the same in assay [5]. Description: flow cytometry on HPB-ALL cells [upper panel].
For assay [6] the target is unchanged. Description: flow cytometry on HPB-ALL cells [lower panel].
Assay [7] has the same target. Nature of the assay: flow cytometry on HPB-ALL cells. The source holds these as a separate data set.
Assay [8] shares this target. Nature of the assay: flow cytometry on HPB-ALL cells [lower panel]. This is another data set of the same source.
Assay [9] shares this target. Description: flow cytometry on HPB-ALL cells [upper panel]. This is another data set of the same source.

T1 sequence (P07766 23-207, chain 1 of 3): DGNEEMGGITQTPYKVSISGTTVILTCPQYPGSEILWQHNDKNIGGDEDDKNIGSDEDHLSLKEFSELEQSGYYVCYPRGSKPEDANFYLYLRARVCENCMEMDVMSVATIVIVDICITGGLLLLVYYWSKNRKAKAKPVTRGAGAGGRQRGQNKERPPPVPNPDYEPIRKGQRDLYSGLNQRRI
T1 sequence (P04234 22-171, chain 2 of 3): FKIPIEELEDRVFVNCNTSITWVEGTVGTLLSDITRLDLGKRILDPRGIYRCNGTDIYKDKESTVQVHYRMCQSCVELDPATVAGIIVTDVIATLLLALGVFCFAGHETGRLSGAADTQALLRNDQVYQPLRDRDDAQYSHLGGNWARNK
T1 sequence (P09693 23-182, chain 3 of 3): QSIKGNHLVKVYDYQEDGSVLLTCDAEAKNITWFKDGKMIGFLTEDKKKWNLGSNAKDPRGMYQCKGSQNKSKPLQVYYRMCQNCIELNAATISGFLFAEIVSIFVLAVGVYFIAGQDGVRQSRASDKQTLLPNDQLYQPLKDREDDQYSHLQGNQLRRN

B1: PG3873 (antibody, V domains shown)
VH: QVQLVQSGGGVVQPGRSLRLSCVASGFTFSSYGMHWVRQAPGKGLEWVAAIWYQGRKQDYADSVKGRFTISRDNSKNTLYLQMNSLRAEDTAVYYCTRGTGYNWFDPWGQGTLVTVSS
VL: not shown
notes: Full length monoclonal IgG; also called MF3873 as IgG
As to B1, in [1], the binding result was “no binding (tested: 10 µg/ml)”.

B2: 5196×4327 DM-Fc bsAb (bispecific antibody, V domains shown)
VH 1: B1 VH with Q54N, G55A
VH 2: QVQLVQSGAEVKKPGASVKVSCKASGYTFTSYYMHWVRQAPGQGLEWMGIINPSGGSTSYAQKFQGRVTMTRDTSTSTVYMELSSLRSEDTAVYYCAKGTTGDWFDYWGQGTLVTVSS
VL: not shown
notes: Full length bispecific IgG with the lower hinge/CH2 changes at positions 235-236 (DM-Fc; L235G, G236R) and CH3 heterodimerisation (KK/DE variants) as in WO2014/051433
As for B2, the dissociation constant Kd in assay [2] was found to be 3 nM. The “fold higher affinity of the CLEC12A arm than of the human CD3 binding arm” value in assay [3] was roughly 60 fold. The binding result in assay [4] is on record as “binds”.

B3: PG5603 (antibody, V domains shown)
VH: B1 VH with Q54N, G55A, D59E, A61I
VL: not shown
notes: Monospecific IgG format; also called MF5603 in monospecific IgG format
In the case of B3, the binding result in assay [5] is reported as “binds”.

B4: PG5694 (antibody, V domains shown)
VH: B1 VH with Q54N, G55A, D59E, A61S
VL: not shown
notes: Monospecific IgG format; also called MF5694 in monospecific IgG format
For B4, the binding result in assay [5] is reported as “binds”.

B5: PG5616 (antibody, V domains shown)
VH: B1 VH with Q54N, G55A, D59E, A61N
VL: not shown
notes: Monospecific IgG format; also called MF5616 in monospecific IgG format
Take B5: the binding result in assay [6] is on record as “binds”.

B6: PG5648 (antibody, V domains shown)
VH: B1 VH with Q54N, G55A, D59E, A61L
VL: not shown
notes: Monospecific IgG format; also called MF5648 in monospecific IgG format
Consider B6, for which the binding result in [5] was “binds”.

B7: PG5196 (antibody, V domains shown)
VH: B1 VH with Q54N, G55A
VL: not shown
notes: Full length monoclonal IgG; also called PG5196 mAb; MF5196 as IgG
B7: the binding result in [7] is given as “binds”.

B8: PG5356 (antibody, V domains shown)
VH: B1 VH with Q6E, V23A, S31K, A50Q, Y53H, Q54D, Q58T, D59Y
VL: not shown
notes: Monospecific IgG format; also called MF5356 in monospecific IgG format
Turning to B8, the binding result in [8] is “binds”.

B9: PG5351 (antibody, V domains shown)
VH: B1 VH with V23A, A50M, Q54D, R56K, K57N, Q58T, D59Y
VL: not shown
notes: Monospecific IgG format; also called MF5351 in monospecific IgG format
B9: the binding result in assay [8] is given as “binds”.

B10: PG5626 (antibody, V domains shown)
VH: B1 VH with Q54N, G55A, D59E, A61R
VL: not shown
notes: Monospecific IgG format; also called MF5626 in monospecific IgG format
As for B10, the binding result in [6] is on record as “binds”.

B11: PG5630 (antibody, V domains shown)
VH: B1 VH with Q54N, G55A, F105Y
VL: not shown
notes: Monospecific IgG format; also called MF5630 in monospecific IgG format
Regarding B11, in assay [5], the binding result is “binds”.

B12: PG3905 (antibody, V domains shown)
VH: B1 VH with Q54G
VL: not shown
notes: Full length monoclonal IgG; also called MF3905 as IgG
Consider B12, for which the binding result in assay [1] is “no binding (tested: 10 µg/ml)”.

B13: PG5354 (antibody, V domains shown)
VH: B1 VH with V23A, S31G, A50Q, W52Y, Q54D, R56S, K57R, Q58T, D59Y
VL: not shown
notes: Monospecific IgG format; also called MF5354 in monospecific IgG format
With B13, in assay [9], the binding result is given as “binds”.

The values above are taken from patent US20160368988A1 (MERUS N V, published 2016).
